Data from patent publication US20170000849A1, “CD300A RECEPTORS AS VIRUS ENTRY COFACTORS” (INSTITUT NATIONAL DE LA SANTE ET DE LA RECHERCHE MEDICALE …, priority 2013, published 2017).

Biological target: human CD300a expressed on Hek293T cells (HekCD300a) (human)
Test: cell-based or functional assay

## goat polyclonal antibody to CD300a (AF2640)
  inhibition of DV2 JAM infection of HekCD300a cells (flow cytometry): 80%
